The record followed here is article PMC10825162 (Nature Communications, 2024).

This test deals with SARS-CoV-2 BA.1 RBD protein (SARS-CoV-2 Omicron BA.1, strain). In words: SPR. Particulars: both partners purified.

B1: BA7208 (antibody, V domains shown)
VH: EVQLVQSGAEVKKPGESLKISCKGSGYSFTSYYWIGWVRQMPGKGLEWMGIVYPDDSDTRYSPSFQGQVTISADKSISTAYLQWSSLKASDTAMYYCVRHPGGGDWYFDLWGRGTLVTVSS
VL: DIQMTQSPSTLSASVGDRVTITCRASQSISSWLAWYQQKPGKAPKLLIYKASSLESGVPSRFSGSGSGTEFTLTITSLQPDDFATYYCQQYDSFSWTFGQGTKLEIK
As a reminder, the Kd is a measure of binding affinity in units of concentration. B1 displayed a dissociation constant (Kd) of 1.81 nM.
